How the values were obtained:
Assay type in all cases: cell-based, human
Pro10 cells [1] = assay: Rep78 expression (western blot) from new forskolin promoter designs in Pro10 cells; conditions: Pro10, 10 uM forskolin or DMSO, 24 hrs
Description: Each of the promoters were tested for their ability to induce expression of the Rep78 protein. To eliminate the expression of Rep52 the ATG start codon in Rep52 was mutated to an AGG. All constructs were synthesized by Genewiz, see sequence files for full plasmid.
Pro10 cells were cultured and transfected using lipofectamine 2000 as previously described herein above. 24 hrs after transfection 10 uM forskolin was added to the cells. Control wells were given DMSO as forskolin was dissolved in this carrier. After another 24 hrs the cells were then lysed and lysates were analyzed for Rep78 expression via western blot (previously described). The best performing promoters were the TATA-m6a, YB and pJB42 (FIG. 29). […] The rest of the promoters have some level of background which indicates leaky expression.

Pro10 cells [2] = assay: Activation of FORN-pJB42 driving Rep78 by adenovirus helper functions; conditions: with and without adenovirus helper functions, forskolin or DMSO
Description: The ability for the aforementioned helper functions to induce the activity of the best performing promoter FORN-pJB42 was next assessed. Transfections were carried out as previously described. Conditions were as follows: FORN-pJB42 controlling expression of Rep78 was transfected with and without the adenovirus helper functions. In addition, the transfected cells were also treated with forskolin at […] or vehicle DMSO control. Analysis of activity was as described in the previous section. […] However, it should be noted that full activity is not obtained until both the adenovirus helper functions and 10 μM forskolin were present.

HEK293-F cells [3] = assay: Luciferase expression from forskolin-inducible promoters in HEK293-F cells after induction with forskolin; conditions: 20 μM forskolin
Description: The forskolin-inducible promoters FORCSV-10, FOR-CMV-009, FMP-02 and FLP-01 were used to drive expression of luciferase in a PM-RQ vector in the suspension cell line HEK293-F. The tested promoters were synthesized directly upstream of the ATG of PM-RQ plasmid and the suspension cell lines were transiently transfected with the PM-RQ plasmid.
(§1) 40 ml of cells were grown in a 250 ml vented Erlenmeyer flask (Sigma-Aldrich CLS431144) at 37° C., 20% O2, 8% CO2 with agitation at 100 rpm. Cells were seeded as described in the manufacturer's instructions (300,000 cells/ml). HEK293-F were obtained from Thermofisher, R79007.
(§2) One day before transfection, the cells were counted using a haemocytometer and split to 500,000 cells/ml.
On the day of transfection, the cells are seeded to 1,000,000 cells/ml in 500 μl of appropriate medium (Freestyle 293 expression medium, 12338002) in a 24 well plate. 0.625 μg of DNA per well was then added to 10 μl of OptiMem medium (Thermofisher; 11058021) and incubated for 5 minutes at room temperature.
Concurrently, 0.625 μl of Max reagent (Thermofisher, 16447100) was made up to 10 μl by addition of OptiMem and incubated for 5 minutes at room temperature. […]
24 hours after transfection, the promoters were induced by addition of 20 μM forskolin and luciferase activity was measured 0, 3, 5 and 24 hours after induction. Luciferase activity was measured as previously described.

HEK293-F cells [4] = assay: Luciferase expression from hypoxia-inducible promoters in transiently transfected HEK293-F cells under hypoxia; conditions: hypoxia 5% oxygen, 3, 5 and 24 hrs
Description: as §1, §2
On the day of transfection, the cells are seeded to 1,000,000 cells/ml in 500 μl of appropriate medium (Freestyle 293 expression medium, 12338002) in a 24 well plate. 0.625 μg of DNA per well was then added to 10 μl of OptiMem medium (Thermofisher; 11058021) and incubated for 5 minutes at room temperature. […]
After transfection the cells were incubated for 24 hrs in normoxia conditions (20% oxygen) before being switched to a gas mix of 5% oxygen, 10% carbon dioxide and 85% nitrogen (hypoxia). […] Induction of the promoters was assessed by using luciferase activity after 3, 5 and 24 hrs in hypoxia.
Luciferase activity was measured using LARII (Dual Luciferase Reporter 1000 assay system, Promega, E1980).
Media was removed from the cells at the respective time point (0, 3, 5, 24 hrs after induction). […] 10 μl of supernatant was pipetted into white 96-well plate and luminescence measured by addition of 50 μl of LARII substrate. […]

Molecule	Rep78 expression (western blot) (Pro10 cells [1])	promoter strength relative to the other promoters (HEK293-F cells [3])	other results
FORN-pJB42: forskolin responsive enhancer element in combination with pJB42 minimal promoter, SEQ ID NO: 211 (nucleic acid) DNA: AATAAAATATCTTTATTTTCATTACATCTGTGTGTTGGTTTTTTGTGTGCCATTGACGTCACGATTTGACGTCAACCATTGACGTCACGATTTGACGTCAACCATTGACGTCACGATTTGACGTCACGATTTGACGTCAACCATTGACTCACGATTTGACTCAACCATTGACTCACGATTTGACTCAACCATTGACTCACGATTTGACTCACGATTCTGACAAATTCAGTATAAAAGCTTGGGGCTGGGGCCGAGCACTGGGGACTTTGAGGGTGGCCAGGCCAGCGTAGGAGGCCAGCGTAGGATCCTGCTGGGAGCGGGGAACTGAGGGAAGCGACGCCGAGAAAGCAGGCGTACCACGGAGGGAGAGAAAAGCTCCGGAAGCCCAGCAGCGGCCACC	no Rep78 expression in the absence of forskolin but strong expression on the presence	–	activation of the promoter driving Rep78 (Pro10 cells [2]): activated by the presence of the helper functions, even in the absence of forskolin
FORCSV-10: forskolin-inducible promoter, 5×cAMPRE and 3×AP1(2) TFBS with SV40-MP, SEQ ID NO: 6 (nucleic acid) DNA: TGACGTCACGATTACCATTGACGTCACGATTACCATTGACGTCACGATTACCATTGACGTCACGATTACCATTGACGTCAGCGATTAAGATGACTCAGCGATTAAGATGACTCAGCGATTAAGATGACTCAGCGATTAAGATGACTCACTAGCCCGGGCTCGAGATCTGCGATCTGCATCTCAATTAGTCAGCAACCATAGTCCCGCCCCTAACTCCGCCCATCCCGCCCCTAACTCCGCCCAGTTCCGCCCATTCTCCGCCCCATCGCTGACTAATTTTTTTTATTTATGCAGAGGCCGAGGCCGCCTCGGCCTCTGAGCTATTCCAGAAGTAGTGAGGAGGCTTTTTTGGAGGCCTAGGCTTTTGCAAA	–	strongest	–
FMP-02: forskolin-inducible promoter, 8×AP1(1) TFBS with MinTK, SEQ ID NO: 8 (nucleic acid) DNA: TGAGTCAGATGATGCGTAGCTAGTAGTTGAGTCAGATGATGCGTAGCTAGTAGTTGAGTCAGATGATGCGTAGCTAGTAGTTGAGTCAGATGATGCGTAGCTAGTAGTTGAGTCAGATGATGCGTAGCTAGTAGTTGAGTCAGATGATGCGTAGCTAGTAGTTGAGTCAGATGATGCGTAGCTAGTAGTTGAGTCAGTAGTCGTATGCTGATGCGCAGTTAGCGTAGCTGAGGTACCGTCGACGATATCGGATCCTTCGCATATTAAGGTGACGCGTGTGGCCTCGAACACCGAGCGACCCTGCAGCGACCCGCTTAA	–	weakest	–
TATA-m6a: forskolin responsive enhancer element in combination with TATA-m6A minimal promoter, SEQ ID NO: 209 (nucleic acid) DNA: AATAAAATATCTTTATTTTCATTACATCTGTGTGTTGGTTTTTTGTGTGCCATTGACGTCACGATTTGACGTCAACCATTGACGTCACGATTTGACGTCAACCATTGACGTCACGATTTGACGTCACGATTTGACGTCAACCATTGACTCACGATTTGACTCAACCATTGACTCACGATTTGACTCAACCATTGACTCACGATTTGACTCACGATTTATAAAAGGCAGAGCTCGTTTAGTGAACCGAAGCTTGGACTAAAGCGGACTTGTCTCGAG	no Rep78 expression in the absence of forskolin but strong expression on the presence	–	–
SYNP-HYP-001: synthetic hypoxia-inducible promoter, four HRE2 and a CMV minimal promoter, SEQ ID NO: 3 (nucleic acid) DNA: CTGCACGTACTGCACGTACTGCACGTACTGCACGTATGGGTACCGTCGACGATATCGGATCCAGGTCTATATAAGCAGAGCTCGTTTAGTGAACCGTCAGATCGCCTAGATACGCCATCCACGCTGTTTTGACCTCCATAGAAGATCGCCACC	–	–	promoter activity (luciferase) relative to the other promoters (HEK293-F cells [4]): stronger

Reference: patent publication US20230407326A1, “INDUCIBLE PROMOTER FOR VIRAL VECTOR PRODUCTION” (ASKLEPIOS BIOPHARMACEUTICAL, INC., priority 2020, published 2023)
